Each block holds one binder with its values, some of them ahead of it.
Biological target: Fc protein
Assay: ELISA, Fc protein coated, 10 ng VHH/well

OD (against Fc): 1.02 OD405
B1: CTLA4 heavy chain single domain antibody No. 188 (VHH)
VHH: QVQLQESGGGSVQAGGSLRLSCAASGYTYSSVCMGWFRQALGKEREAVVGIDGDGITMYANSVKGRFTISKDNAKNTLYLQMNSLKPEDTAMYYCASGGGQGDGSCALTYWGQGTQVTVSS

OD (against Fc): 0.752 OD405
B2: CTLA4 heavy chain single domain antibody No. J38 (VHH)
VHH: QVQLQESGGGSVQAGGSLRLSCAPSRYSGALMGWFRQAPGKEREGVAVISRSGLTTYYADSVKGRFTISQDTAKNTIYLQMNSMKPEDTAMYYCVAGWHVGGTWSETSSYDYWGQGTQVTVSS
